This is an account of results in patent US20060269542A1, “Immunoliposome composition for targeting to a HER2 cell receptor” (priority 2005, published 2006).

In brackets after ≈: the same amount, converted by molar mass.

Assay [1] deals with SK-BR-3 human breast carcinoma cells. Description: cells. Conditions: 10-min exposure, then 72 hours growth, read-out: IC50 (doxorubicin concentration resulting in 50% cell growth inhibition). The assay is classed as cell-based.
Protocol: SK-BR-3 human breast carcinoma cell line was purchased from American Tissue Type Culture Collection (ATCC, Manassas, Va.). Cells were maintained in in vitro culture in McCoy's 5A modified medium supplemented with 10% fatal bovine serum and were maintained in a humidified incubator at 37° C.
Cells were exposed for 10 minutes to doxorubicin (1.8 mg/mL) in free form, doxorubicin entrapped in PEGylated liposomes (2.06 mg/mL), or an immunoliposome formulation having 2 antibodies per liposome (1.86 mg/mL), 5 antibodies per liposome (2.12 mg/mL), 7.5 antibodies per liposome (1.99 mg/mL), or 15 antibodies per liposome (2 mg/mL).
Log-phase SK-BR-3 breast cancer cells were harvested using Versene (1:5000), resuspended in growth media at concentration of 5×10^4 cells/mL. […] At the end of incubation, the amount of viable cells was determined using the Promega CellTiter 96® Aqueous One Solution Cell Proliferation Assay (a tetrazolium based colorimetric method for determining the number of viable cells in proliferation, Madison, Wis.). […] The plates were then incubated for 3-4 hours after which absorbance was recorded at 490 nm with a microplate reader. Cell viability was calculated as % of untreated control using the formula: % Viability=(A−A0)/(A100−A0)×100% where A is the measured absorbance, A0 is the absorbance of the blanks, and A100 is the absorbance of the wells with untreated cells. […]
Assay [2] has as its target T1, HER2 receptor (human, UniProt P04626 23-1255). Description: cell-based or functional assay.
Assay [3] concerns the target T1, HER2 receptor. Description: 4 h incubation of immunoliposomes with SK-BR-3 cells (IHC 3+), wash, lysis, doxorubicin fluorescence. As to the method: SK-BR-3 or MCF-7 cells at 1.5×10⁵ cells/0.5 mL of growth medium per well were added to a 24-well plate. After overnight incubation for attachment and acclimation, cells were treated with immunoliposomes ([…], 15:1, 30:1, and 45:1 anti-HER2 antibodies:liposome), or liposomes at 0.015 mg/mL in 0.5 mL growth media/well in duplicates. The 24-well plates were then placed on a rotating platform inside the incubator with rotation at 40-60 rpm at 37° C., 5% CO₂, and 100% humidity for 4 hours. After incubation, cell medium were aspirated and cells were washed four times with Hank's Balanced Salt Solution (HBSS). After this, cells were lysed by adding 0.1 mL of 1% Triton X-100 to each well. The plates were swirled to mix and placed on a rotating platform for 15 minutes at room temperature. During this step, cells detached from the bottom of the plate and the cell nuclei formed visible clumps. Acid isopropanol (1.0 mL) were added to the wells containing the Triton X-100 solution and mixed by swirling or pipetting up and down until the visible clumps disappeared.
Doxorubicin content in the cell lysates was measured by a spectrofluorometer using an excitation wavelength of 470 nm and an emission wavelength of 590 nm. The spectrofluorometer settings were as follows: slit width 2 nm, integration time 1 second, photomultiplier voltage 950 V, and single wavelength acquisition mode. Fluorescence of the background cell lysate was subtracted and the amount of doxorubicin in the cell lysates was determined from the concurrently measured standards (10, 25, 50, 100, 250, 500, 1000, and 2500 ng of doxorubicin per sample) fit to a standard curve using quadratic polynomial regression. Cell uptake of doxorubicin was determined by interpolation from the standard curve.

In assay [4] the target is extracellular domain of HER2 receptor (Homo sapiens, UniProt P04626). Conditions: read-out: HER2 binding affinity (Kd); cited from earlier work.

On to `COc1cccc2c1C(=O)c1c(O)c3c(c(O)c1C2=O)C[C@@](O)(C(=O)CO)C[C@@H]3O[C@H]1C[C@H](N)[C@H](O)[C@H](C)O1` [free doxorubicin, doxorubicin], for which, in assay [1], the IC50 was around 9.5 µg/mL (≈ 17.5 µM).

B1: anti-Her2 immunoliposome formulation with scFv/liposome ratio of 5 (scFv)
scFv: QVQLVESGGGLVQPGGSLRLSCAASGFTFRSYAMSWVRQAPGKGLEWVSAISGRGDNTYYADSVKGRFTISRDNSKNTLYLQMNSLRAEDTAVYYCAKMTSNAFAFDYWGQGTLVTVSSGGGGSGGGGSGGGGSQSVLTQPPSVSGAPGQRVTISCTGSSSNIGAGYGVHWYQQLPGTAPKLLIYGNTNRPSGVPDRFSGFKSGTSASLAITGLQAEDEADYYCQSYDSSLSGWVFGGGTKLTVLG
modifications: terminal cysteine coupled through a thioether linkage to maleimide-PEG-DSPE
As to B1, in the assay with HER2 receptor [2], the “IC50 (cytotoxicity, SK-BR-3 cells, 10-min exposure, doxorubicin concentration)” value is around 30 µg/mL.

B2: Anti-HER2 Immunoliposomes (45:1) (scFv)
scFv: B1 scFv
modifications: terminal cysteine coupled through a thioether linkage to maleimide-PEG-DSPE
notes: On average 45 scFv per liposome; also called 45:1 immunoliposome formulation; F5 scFv immunoliposome
For the molecule B2, the “Doxorubicin (pg/cell), cellular binding/uptake” value with HER2 receptor [3] turned out to be 4.39 pg/cell.

B3: Anti-HER2 Immunoliposomes (30:1) (scFv)
scFv: B1 scFv
modifications: terminal cysteine coupled through a thioether linkage to maleimide-PEG-DSPE
notes: On average 30 scFv per liposome; also called 30:1 immunoliposome formulation; F5 scFv immunoliposome
With B3, the “Doxorubicin (pg/cell), cellular binding/uptake” value in the assay with HER2 receptor [3] came out at 6.66 pg/cell.

B4: F5: single chain antibody fragment (scFv), 251 amino acids, binds extracellular domain of HER2 receptor, SEQ ID NO: 2 (protein, listed as Homo sapiens)
scFv: B1 scFv
As for B4, the Kd in assay [4] was 150 to 300 nM.

B5: Anti-HER2 Immunoliposomes (15:1) (scFv)
scFv: B1 scFv
modifications: terminal cysteine coupled through a thioether linkage to maleimide-PEG-DSPE
notes: On average 15 scFv per liposome; also called 15:1 immunoliposome formulation; immunoliposomes with 15 antibodies per liposome
In the case of B5, in the assay with HER2 receptor [2], the “IC50 (cytotoxicity, SK-BR-3 cells, 10-min exposure, doxorubicin concentration)” value is around 3.9 µg/mL. For the same molecule, the “Doxorubicin (pg/cell), cellular binding/uptake” value in the assay with HER2 receptor [3] was determined as 8.35 pg/cell.

B6: Anti-HER2 Immunoliposomes (7.5:1) (scFv)
scFv: B1 scFv
modifications: terminal cysteine coupled through a thioether linkage to maleimide-PEG-DSPE
notes: On average 7.5 scFv per liposome; also called 7.5:1 immunoliposome formulation; immunoliposomes containing 7.5 antibodies per liposome
Turning to B6, the “IC50 (cytotoxicity, SK-BR-3 cells, 10-min exposure, doxorubicin concentration)” value with HER2 receptor [2] is around 16 µg/mL. Further, the “Doxorubicin (pg/cell), cellular binding/uptake” value with HER2 receptor [3] stood at 6.02 pg/cell.
